From patent publication US20140274782A1, “AFFINITY REAGENTS AND METHODS FOR DETECTION, PURIFICATION, AND PROTEOMIC ANALYSIS OF METHYLATED PROTEINS” (The Board of Trustees of the Leland Stanford Junior …, priority 2013, published 2014)
Blank lines part the entries; values can stand above or below the molecule they belong to.

Key:
3×MBT domain of L3MBTL1 = assay: Triple SILAC pull-down, 3xMBT/3xMBTD355N ratio (cytoplasmic, nuclear and chromatin fractions of 293T cells); type: binding, human; conditions: SILAC ratio, pull-down 3xMBT vs 3xMBTD355N; for 3xMBT/D355N UNC Heavy: experiment with UNC0638 in heavy SILAC media; for 3xMBT/D355N UNC Light: experiment with UNC0638 in light SILAC media;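 as to all read-outs here: proteins quantified with MaxQuant, requiring at least two unique peptides and quantification in both label directions, normalized to the mean of proteins from a digested loading control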
G9a and GLP = target: T1, G9a and GLP (Homo sapiens, UniProt Q96KQ7+Q9H9B1); assay: Triple SILAC pull-down after UNC0638 treatment of 293T cells, DMSO/UNC0638 ratio of protein captured by 3×MBT; type: cell-based; parameters: endogenous in cells; host or cells: HEK 293T; conditions: for Relative to UNC0638 UNC Heavy / Relative to UNC0638 UNC Light: SILAC ratio DMSO/UNC0638 of protein pulled down with 3xMBT; for Relative to UNC0638 UNC Heavy: UNC0638 in heavy SILAC media; for Relative to UNC0638 UNC Light: UNC0638 in light SILAC media; for Relative to UNC0638 Average: average of UNC Light and UNC Heavy experiments;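 as to all read-outs here: mass spectrometry (Q-Exactive) SILAC quantitation, DMSO/UNC0638 ratio computed after subtracting 3×MBTD355N mutant pull-down background, only proteins with at least twofold 3×MBT over mutant signal considered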
T1 sequence (Q96KQ7 2-1210 limits assumed): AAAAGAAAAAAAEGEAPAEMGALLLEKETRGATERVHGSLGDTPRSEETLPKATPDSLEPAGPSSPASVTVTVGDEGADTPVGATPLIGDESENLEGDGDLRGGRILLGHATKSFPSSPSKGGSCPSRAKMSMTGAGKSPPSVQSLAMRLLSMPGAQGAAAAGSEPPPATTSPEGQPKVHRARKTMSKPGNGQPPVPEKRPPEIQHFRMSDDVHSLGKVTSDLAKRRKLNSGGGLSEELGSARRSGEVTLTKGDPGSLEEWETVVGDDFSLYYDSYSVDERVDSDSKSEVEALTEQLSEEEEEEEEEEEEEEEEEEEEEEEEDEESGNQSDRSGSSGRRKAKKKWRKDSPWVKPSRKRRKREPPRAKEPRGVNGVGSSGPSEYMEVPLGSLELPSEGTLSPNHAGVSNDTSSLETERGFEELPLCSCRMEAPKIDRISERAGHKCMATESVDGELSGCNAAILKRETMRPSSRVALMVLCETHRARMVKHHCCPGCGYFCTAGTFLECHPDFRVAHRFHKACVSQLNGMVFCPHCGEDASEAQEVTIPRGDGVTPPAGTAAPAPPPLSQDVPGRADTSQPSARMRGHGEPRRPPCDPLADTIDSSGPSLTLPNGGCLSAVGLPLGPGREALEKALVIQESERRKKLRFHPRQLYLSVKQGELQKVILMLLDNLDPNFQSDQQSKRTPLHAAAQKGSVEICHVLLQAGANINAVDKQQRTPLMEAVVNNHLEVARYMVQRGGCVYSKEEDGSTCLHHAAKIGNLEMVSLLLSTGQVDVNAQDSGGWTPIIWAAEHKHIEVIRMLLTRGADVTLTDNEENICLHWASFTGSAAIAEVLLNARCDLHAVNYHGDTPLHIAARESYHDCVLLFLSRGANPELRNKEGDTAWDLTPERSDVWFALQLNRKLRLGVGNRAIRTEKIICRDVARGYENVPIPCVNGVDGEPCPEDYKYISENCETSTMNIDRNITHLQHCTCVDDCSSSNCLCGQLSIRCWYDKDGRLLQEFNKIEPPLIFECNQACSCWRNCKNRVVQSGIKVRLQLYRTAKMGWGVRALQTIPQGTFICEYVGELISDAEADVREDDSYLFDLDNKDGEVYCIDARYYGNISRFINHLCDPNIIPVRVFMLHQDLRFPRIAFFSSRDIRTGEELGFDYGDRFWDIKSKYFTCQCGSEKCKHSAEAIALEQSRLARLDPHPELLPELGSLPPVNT
T1 sequence (Q9H9B1 2-1298 limits assumed): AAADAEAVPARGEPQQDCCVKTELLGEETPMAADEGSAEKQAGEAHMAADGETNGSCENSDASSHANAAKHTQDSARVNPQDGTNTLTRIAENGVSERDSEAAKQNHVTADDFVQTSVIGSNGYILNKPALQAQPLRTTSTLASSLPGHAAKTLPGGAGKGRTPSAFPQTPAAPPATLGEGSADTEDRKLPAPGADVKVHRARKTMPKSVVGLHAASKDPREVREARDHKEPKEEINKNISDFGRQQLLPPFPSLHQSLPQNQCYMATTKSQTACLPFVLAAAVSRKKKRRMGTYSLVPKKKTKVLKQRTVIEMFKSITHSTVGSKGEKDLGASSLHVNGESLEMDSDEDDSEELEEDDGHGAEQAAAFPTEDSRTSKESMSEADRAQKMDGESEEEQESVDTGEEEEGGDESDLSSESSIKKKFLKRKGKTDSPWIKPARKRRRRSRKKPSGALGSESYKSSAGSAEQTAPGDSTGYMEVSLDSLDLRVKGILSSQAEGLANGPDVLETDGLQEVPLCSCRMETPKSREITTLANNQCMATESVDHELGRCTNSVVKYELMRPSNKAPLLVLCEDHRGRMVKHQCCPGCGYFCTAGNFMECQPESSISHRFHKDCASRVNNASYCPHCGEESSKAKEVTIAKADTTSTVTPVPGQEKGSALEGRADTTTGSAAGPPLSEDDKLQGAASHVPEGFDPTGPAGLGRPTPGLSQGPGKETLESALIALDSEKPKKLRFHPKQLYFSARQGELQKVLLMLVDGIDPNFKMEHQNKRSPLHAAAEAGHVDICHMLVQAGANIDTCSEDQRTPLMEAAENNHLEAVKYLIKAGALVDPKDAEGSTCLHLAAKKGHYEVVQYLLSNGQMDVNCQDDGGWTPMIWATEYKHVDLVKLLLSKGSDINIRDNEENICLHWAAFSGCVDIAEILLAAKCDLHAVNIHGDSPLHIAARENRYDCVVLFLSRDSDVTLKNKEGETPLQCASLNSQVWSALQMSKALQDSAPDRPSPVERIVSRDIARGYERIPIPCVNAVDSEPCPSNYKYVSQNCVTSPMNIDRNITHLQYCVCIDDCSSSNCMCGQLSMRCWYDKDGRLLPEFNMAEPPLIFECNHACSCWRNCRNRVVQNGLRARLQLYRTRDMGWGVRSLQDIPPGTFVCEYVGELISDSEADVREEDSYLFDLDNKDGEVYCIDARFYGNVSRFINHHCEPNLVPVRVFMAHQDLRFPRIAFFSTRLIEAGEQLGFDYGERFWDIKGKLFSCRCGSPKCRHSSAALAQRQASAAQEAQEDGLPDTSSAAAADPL

Relative to UNC0638 UNC Heavy (G9a and GLP): 0.25 log base 2
Relative to UNC0638 UNC Light (G9a and GLP): 0.12 log base 2
Relative to UNC0638 Average (G9a and GLP): 0.19 log base 2
B1: GNB1L (protein, UniProt Q9BYB4 1-327, looked up)
Guanine nucleotide-binding …: MTAPCPPPPPDPQFVLRGTQSPVHALHFCEGAQAQGRPLLFSGSQSGLVHIWSLQTRRAVTTLDGHGGQCVTWLQTLPQGRQLLSQGRDLKLCLWDLAEGRSAVVDSVCLESVGFCRSSILAGGQPRWTLAVPGRGSDEVQILEMPSKTSVCALKPKADAKLGMPMCLRLWQADCSSRPLLLAGYEDGSVVLWDVSEQKVCSRIACHEEPVMDLDFDSQKARGISGSAGKALAVWSLDWQQALQVRGTHELTNPGIAEVTIRPDRKILATAGWDHRIRVFHWRTMQPLAVLAFHSAAVQCVAFTADGLLAAGSKDQRISLWSLYPRA
3xMBT/D355N UNC Heavy (3×MBT domain of L3MBTL1): 2.24 log base 2
3xMBT/D355N UNC Light (3×MBT domain of L3MBTL1): 2.60 log base 2

Relative to UNC0638 UNC Heavy (G9a and GLP): 0.05 log base 2
Relative to UNC0638 UNC Light (G9a and GLP): 0.34 log base 2
Relative to UNC0638 Average (G9a and GLP): 0.19 log base 2
B2: FUS (protein, UniProt P35637 1-526, looked up)
RNA-binding protein FUS: MASNDYTQQATQSYGAYPTQPGQGYSQQSSQPYGQQSYSGYSQSTDTSGYGQSSYSSYGQSQNTGYGTQSTPQGYGSTGGYGSSQSSQSSYGQQSSYPGYGQQPAPSSTSGSYGSSSQSSSYGQPQSGSYSQQPSYGGQQQSYGQQQSYNPPQGYGQQNQYNSSSGGGGGGGGGGNYGQDQSSMSSGGGSGGGYGNQDQSGGGGSGGYGQQDRGGRGRGGSGGGGGGGGGGYNRSSGGYEPRGRGGGRGGRGGMGGSDRGGFNKFGGPRDQGSRHDSEQDNSDNNTIFVQGLGENVTIESVADYFKQIGIIKTNKKTGQPMINLYTDRETGKLKGEATVSFDDPPSAKAAIDWFDGKEFSGNPIKVSFATRRADFNRGGGNGRGGRGRGGPMGRGGYGGGGSGGGGRGGFPSGGGGGGGQQRAGDWKCPNPTCENMNFSWRNECNQCKAPKPDGPGGGPGGSHMGGNYGDDRRGGRGGYDRGGYRGRGGDRGGFRGGRGGGDRGGFGPGKMDSRGEHRQDRRERPY
3xMBT/D355N UNC Heavy (3×MBT domain of L3MBTL1): 2.17 log base 2
3xMBT/D355N UNC Light (3×MBT domain of L3MBTL1): 2.10 log base 2

Relative to UNC0638 UNC Heavy (G9a and GLP): 0.34 log base 2
Relative to UNC0638 UNC Light (G9a and GLP): 0.05 log base 2
Relative to UNC0638 Average (G9a and GLP): 0.19 log base 2
B3: GIGYF2 (protein, UniProt Q6Y7W6 2-1299, looked up)
GRB10-interacting GYF protein …: AAETQTLNFGPEWLRALSSGGSITSPPLSPALPKYKLADYRYGREEMLALFLKDNKIPSDLLDKEFLPILQEEPLPPLALVPFTEEEQRNFSMSVNSAAVLRLTGRGGGGTVVGAPRGRSSSRGRGRGRGECGFYQRSFDEVEGVFGRGGGREMHRSQSWEERGDRRFEKPGRKDVGRPNFEEGGPTSVGRKHEFIRSESENWRIFREEQNGEDEDGGWRLAGSRRDGERWRPHSPDGPRSAGWREHMERRRRFEFDFRDRDDERGYRRVRSGSGSIDDDRDSLPEWCLEDAEEEMGTFDSSGAFLSLKKVQKEPIPEEQEMDFRPVDEGEECSDSEGSHNEEAKEPDKTNKKEGEKTDRVGVEASEETPQTSSSSARPGTPSDHQSQEASQFERKDEPKTEQTEKAEEETRMENSLPAKVPSRGDEMVADVQQPLSQIPSDTASPLLILPPPVPNPSPTLRPVETPVVGAPGMGSVSTEPDDEEGLKHLEQQAEKMVAYLQDSALDDERLASKLQEHRAKGVSIPLMHEAMQKWYYKDPQGEIQGPFNNQEMAEWFQAGYFTMSLLVKRACDESFQPLGDIMKMWGRVPFSPGPAPPPHMGELDQERLTRQQELTALYQMQHLQYQQFLIQQQYAQVLAQQQKAALSSQQQQQLALLLQQFQTLKMRISDQNIIPSVTRSVSVPDTGSIWELQPTASQPTVWEGGSVWDLPLDTTTPGPALEQLQQLEKAKAAKLEQERREAEMRAKREEEERKRQEELRRQQEEILRRQQEEERKRREEEELARRKQEEALRRQREQEIALRRQREEEERQQQEEALRRLEERRREEEERRKQEELLRKQEEEAAKWAREEEEAQRRLEENRLRMEEEAARLRHEEEERKRKELEVQRQKELMRQRQQQQEALRRLQQQQQQQQLAQMKLPSSSTWGQQSNTTACQSQATLSLAEIQKLEEERERQLREEQRRQQRELMKALQQQQQQQQQKLSGWGNVSKPSGTTKSLLEIQQEEARQMQKQQQQQQQHQQPNRARNNTHSNLHTSIGNSVWGSINTGPPNQWASDLVSSIWSNADTKNSNMGFWDDAVKEVGPRNSTNKNKNNASLSKSVGVSNRQNKKVEEEEKLLKLFQGVNKAQDGFTQWCEQMLHALNTANNLDVPTFVSFLKEVESPYEVHDYIRAYLGDTSEAKEFAKQFLERRAKQKANQQRQQQQLPQQQQQQPPQQPPQQPQQQDSVWGMNHSTLHSVFQTNQSNNQQSNFEAVQSGKKKKKQKMVRADPSLLGFSVNASSERLNMGEIETLDDY
3xMBT/D355N UNC Heavy (3×MBT domain of L3MBTL1): 2.62 log base 2
3xMBT/D355N UNC Light (3×MBT domain of L3MBTL1): 3.04 log base 2

Relative to UNC0638 UNC Heavy (G9a and GLP): 0.16 log base 2
Relative to UNC0638 UNC Light (G9a and GLP): 0.22 log base 2
Relative to UNC0638 Average (G9a and GLP): 0.19 log base 2
B4: TOP1 (protein, UniProt P11387 2-765, looked up)
DNA topoisomerase 1: SGDHLHNDSQIEADFRLNDSHKHKDKHKDREHRHKEHKKEKDREKSKHSNSEHKDSEKKHKEKEKTKHKDGSSEKHKDKHKDRDKEKRKEEKVRASGDAKIKKEKENGFSSPPQIKDEPEDDGYFVPPKEDIKPLKRPRDEDDADYKPKKIKTEDTKKEKKRKLEEEEDGKLKKPKNKDKDKKVPEPDNKKKKPKKEEEQKWKWWEEERYPEGIKWKFLEHKGPVFAPPYEPLPENVKFYYDGKVMKLSPKAEEVATFFAKMLDHEYTTKEIFRKNFFKDWRKEMTNEEKNIITNLSKCDFTQMSQYFKAQTEARKQMSKEEKLKIKEENEKLLKEYGFCIMDNHKERIANFKIEPPGLFRGRGNHPKMGMLKRRIMPEDIIINCSKDAKVPSPPPGHKWKEVRHDNKVTWLVSWTENIQGSIKYIMLNPSSRIKGEKDWQKYETARRLKKCVDKIRNQYREDWKSKEMKVRQRAVALYFIDKLALRAGNEKEEGETADTVGCCSLRVEHINLHPELDGQEYVVEFDFLGKDSIRYYNKVPVEKRVFKNLQLFMENKQPEDDLFDRLNTGILNKHLQDLMEGLTAKVFRTYNASITLQQQLKELTAPDENIPAKILSYNRANRAVAILCNHQRAPPKTFEKSMMNLQTKIDAKKEQLADARRDLKSAKADAKVMKDAKTKKVVESKKKAVQRLEEQLMKLEVQATDREENKQIALGTSKLNYLDPRITVAWCKKWGVPIEKIYNKTQREKFAWAIDMADEDYEF
3xMBT/D355N UNC Heavy (3×MBT domain of L3MBTL1): 3.47 log base 2
3xMBT/D355N UNC Light (3×MBT domain of L3MBTL1): 3.87 log base 2
